Our source for the type 1 phosphatase activity values is patent publication US9114148.

For this test, the target named is cardiac protein phosphatase 1 (type 1 phosphatase activity of mouse hearts) (mouse). Kind of test: cell-based or functional assay.

For “constitutively active, truncated inhibitor-1 (I-T35D; AA 1-65), mouse (from UniProt Q9ERT9 1-65)”, the type 1 phosphatase activity came to 15 % decrease.
